What was measured:
[1] = target: T1, Human CD39-L4 (NTPDase5, ENTPD5) (Homo sapiens, UniProt O75356); experiment: ELISA titration on CD39-L4; type: binding; settings: result in words
T1 sequence (O75356 25-428): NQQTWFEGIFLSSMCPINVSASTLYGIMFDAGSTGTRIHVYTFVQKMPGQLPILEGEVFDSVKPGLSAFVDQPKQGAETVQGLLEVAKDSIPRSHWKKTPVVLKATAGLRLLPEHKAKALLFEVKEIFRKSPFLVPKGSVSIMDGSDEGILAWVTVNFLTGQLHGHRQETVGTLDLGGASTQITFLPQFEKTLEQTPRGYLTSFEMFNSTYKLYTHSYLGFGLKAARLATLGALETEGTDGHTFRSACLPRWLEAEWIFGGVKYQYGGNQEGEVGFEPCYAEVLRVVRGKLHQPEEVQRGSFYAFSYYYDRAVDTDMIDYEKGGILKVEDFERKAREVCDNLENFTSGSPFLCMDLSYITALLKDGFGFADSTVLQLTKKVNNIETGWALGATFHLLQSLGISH
Method: (§1) Antibody I-394 was tested for binding to recombinant human CD39 isoforms (Rec-huCD39 isoforms) having amino acid sequences shown below were coated in 96-well plate in PBS 1× at 500 ng/ml or 1 μg/ml at 4° C. overnight. Wells were washed in TBS Tween 20, and further saturated 2H at RT in TBS Blocking buffer. Dose range concentration of primary antibody was incubated in TBS blocking buffer for 2 h at RT. Wells were washed in TBS Tween 20. […] Optical density was measured on Enspire™ at OD=450.

[2] = target: T2, cell-membrane bound CD39 (Homo sapiens, UniProt P49961); experiment: Inhibition of the enzymatic activity of cellular CD39 (cells not specified); type: cell-based
T2 sequence (P49961 1-510): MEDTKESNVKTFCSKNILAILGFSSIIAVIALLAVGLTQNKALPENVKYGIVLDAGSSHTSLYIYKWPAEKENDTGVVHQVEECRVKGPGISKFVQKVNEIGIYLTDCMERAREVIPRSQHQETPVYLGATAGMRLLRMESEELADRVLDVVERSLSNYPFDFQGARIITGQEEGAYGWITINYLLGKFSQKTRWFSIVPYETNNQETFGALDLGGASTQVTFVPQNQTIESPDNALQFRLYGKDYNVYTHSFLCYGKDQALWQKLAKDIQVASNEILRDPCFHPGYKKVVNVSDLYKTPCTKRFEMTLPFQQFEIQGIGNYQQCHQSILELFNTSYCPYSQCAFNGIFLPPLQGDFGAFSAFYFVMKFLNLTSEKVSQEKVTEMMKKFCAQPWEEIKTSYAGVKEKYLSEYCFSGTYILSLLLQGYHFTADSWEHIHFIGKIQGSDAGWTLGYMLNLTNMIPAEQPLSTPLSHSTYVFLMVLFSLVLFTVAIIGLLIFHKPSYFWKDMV
Method: The inhibition of the CD39 enzymatic activity in CD39-expressing cells by antibodies was evaluated using Cell Titer Glo™ (Promega, reference G7571) that allows assessment of ATP hydrolysis through use of a reagent that generates a luminescent signal proportional to the amount of ATP present. The assay was thus designed to permit assessment of the inhibition of ATP hydrolyzed by CD39 in the cell culture supernatant. Briefly, 5×10^4 Ramos human lymphoma cells, 5×10^3 human CD39-, cynomolgus CD39- and mouse CD39-expressing CHO cells, were incubated 1 hour at 37° C. with anti-CD39 antibodies from 30 μg/ml to […]. Cells were then incubated with 20 μM ATP for 1 additional hour at 37° C. Plates were centrifuged for 2 min at 400 g and 50 μl cell supernatant are transferred in a luminescence microplate (white wells). 50 μl CellTiter-Glo® Reagent (CTG) was added to the supernatant and emitted light was quantified after a 5 min incubation in the dark using a Enspire™ luminometer. Anti-CD39 antibody efficacy was determined by comparing emitted light in presence of antibody with ATP alone (maximal light emission) and ATP together with cells (minimal light emission).
The two antibodies that have been reported to inhibit the ATPase activity of CD39 in cellular assays (BY40 and BY12) were assessed to determine whether are able to inhibit the ATPase activity of recombinant soluble CD39 protein. […]

[3] = target: T3, Human CD39-L3 (NTPDase3, ENTPD3) (Homo sapiens, UniProt O75355); experiment: ELISA titration on CD39-L3; type: binding; settings: result in words
T3 sequence (O75355 1-529): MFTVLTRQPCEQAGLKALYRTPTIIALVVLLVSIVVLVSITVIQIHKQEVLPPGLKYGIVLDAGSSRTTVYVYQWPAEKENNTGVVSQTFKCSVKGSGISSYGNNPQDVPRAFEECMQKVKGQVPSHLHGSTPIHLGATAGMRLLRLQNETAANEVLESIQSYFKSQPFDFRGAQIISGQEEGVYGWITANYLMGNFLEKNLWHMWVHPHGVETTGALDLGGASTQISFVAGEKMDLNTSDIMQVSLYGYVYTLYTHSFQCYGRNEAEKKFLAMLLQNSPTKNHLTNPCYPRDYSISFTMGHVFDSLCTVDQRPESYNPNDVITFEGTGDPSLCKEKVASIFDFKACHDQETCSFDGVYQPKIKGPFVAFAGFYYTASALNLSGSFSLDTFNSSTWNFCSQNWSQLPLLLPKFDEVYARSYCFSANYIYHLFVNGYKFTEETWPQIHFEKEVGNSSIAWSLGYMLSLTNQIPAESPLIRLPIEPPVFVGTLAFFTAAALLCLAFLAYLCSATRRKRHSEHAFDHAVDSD
Method: as §1

I-394: anti-CD39 antibody, VH SEQ ID NO: 6, VL SEQ ID NO: 7; human IgG1 Fc with L234A/L235E/G237A/A330S/P331S
binding to CD39-L4 in ELISA [1]: not | potency and maximal inhibition of cellular CD39 compared to BY40 (FIG. 2A) ([2]; compared to BY40): greater potency and maximal inhibition | inhibition of ATPase activity of CD39 protein in cells / cell-membrane bound CD39 ([2]; result in words): inhibit | binding to CD39-L3 in ELISA [3]: not
